This passage reports koff, kon and Kd results from patent publication US20180346604A1.

Assay [1] has as its target Biotin-GCN4 peptide (yeast). The assay is described as follows: SPR (Biacore 3000), Biotin-GCN4 peptide captured on immobilised streptavidin, Fab-scFv injected, 1:1 binding model. (In general: SPR reads the build-up and loss of mass on a sensor chip optically.)
In assay [2] the target is Biotin-GCN4 peptide (yeast). The assay can be described thus: SPR, Biacore 3000, 25 C; biotin-GCN4 peptide captured on streptavidin CM5 chip, Fab-scFv as analyte from 30 nM, 1:1 model.

B1: Fab-scFv (anti-GCN4 52SR4 scFv fused to a Fab, generated in-house) (Fab, part only; not given: carrier Fab and its linker, not shown: another chain or arm of the molecule; large carriers; small tags and cut ends)
scFv: DAVVTQESALTSSPGETVTLTCRSSTGAVTTSNYASWVQEKPDHLFTGLIGGTNNRAPGVPARFSGSLIGDKAALTITGAQTEDEAIYFCVLWYSDHWVFGCGTKLTVLGGGGGSGGGGSGGGGSGGGGSDVQLQQSGPGLVAPSQSLSITCTVSGFLLTDYGVNWVRQSPGKCLEWLGVIWGDGITDYNSALKSRLSVTKDNSKSQVFLKMNSLQSGDSARYYCVTGLFDYWGQGTTLTVSSAAAHHHHHHEQKLISEEDL
As a reminder, the koff is a measure of how fast the partners let go of each other. As usually defined, the kon is the second-order rate constant of association. Higher therefore signals faster complex formation. For orientation: Kd means the equilibrium constant for the complex coming apart. High values mean weaker binding, low ones tighter binding. Take B1: in assay [1], the koff was determined as 0.00027 s⁻¹ and the kon worked out at 510000 M⁻¹ s⁻¹. In addition, the Kd in assay [2] was determined as 0.516 nM.
